The values below come from paper PMC10580383, “Development of Melanocortin 4 Receptor Agonists by Exploiting Animal-Derived Macrocyclic, Disulfide-Rich Peptide Scaffolds” (ACS Pharmacology & Translational Science, 2023).

Bridges are numbered along the chain shown (N, C = ends). Where no end group is shown, it is not given here. [ ]: non-standard residue; d: D form. Some results are limits rather than exact numbers.

Assay [1] concerns the target human melanocortin 4 receptor with LgBit fused at the C-terminus (human) (UniProt P32245).
Assay [2] addresses mouse melanocortin 4 receptor fused to EGFP (mouse) (UniProt P56450).
For assay [3] the target is unchanged. The source holds these as a separate data set.
Assay [4] has as its target human melanocortin 4 receptor with C-terminally fused SmBit (human) (UniProt P32245).

Chain of human melanocortin 4 receptor with C-terminally fused SmBit (human) (P32245 whole entry, the tested form may be a part): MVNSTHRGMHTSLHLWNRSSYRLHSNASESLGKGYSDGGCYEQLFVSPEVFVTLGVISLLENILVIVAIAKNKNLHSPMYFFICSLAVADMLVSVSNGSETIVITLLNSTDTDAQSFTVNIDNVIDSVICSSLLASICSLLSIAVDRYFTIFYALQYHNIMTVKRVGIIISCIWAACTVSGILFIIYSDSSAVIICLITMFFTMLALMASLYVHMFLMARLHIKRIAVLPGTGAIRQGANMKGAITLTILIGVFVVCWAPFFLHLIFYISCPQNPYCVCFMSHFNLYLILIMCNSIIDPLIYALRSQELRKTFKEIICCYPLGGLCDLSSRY
Chain of human melanocortin 4 receptor with LgBit fused at the C-terminus (human) (P32245 whole entry, the tested form may be a part): as above
Chain of mouse melanocortin 4 receptor fused to EGFP (mouse) (P56450 whole entry, the tested form may be a part): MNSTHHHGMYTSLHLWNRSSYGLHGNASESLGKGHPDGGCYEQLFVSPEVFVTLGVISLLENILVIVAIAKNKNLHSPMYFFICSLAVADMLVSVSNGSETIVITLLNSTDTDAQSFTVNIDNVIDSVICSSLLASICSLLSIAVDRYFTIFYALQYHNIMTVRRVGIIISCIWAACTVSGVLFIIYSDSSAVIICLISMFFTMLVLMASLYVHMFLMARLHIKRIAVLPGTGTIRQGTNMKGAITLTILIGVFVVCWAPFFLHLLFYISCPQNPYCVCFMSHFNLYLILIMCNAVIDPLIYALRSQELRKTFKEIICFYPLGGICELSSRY

On to α-MSH (peptide), for which the coupling of Gαs-SmBit to MC4R-LgBit (nanoluciferase complementation, live cells): EC50 in assay [1] worked out at 1 nM.

B1: protegrin-4-like peptide 1 (peptide)
peptide: RGGRLCYCPH[dF]HWCFCVGR-NH2
modifications: disulfide 8-14, 6-16; N-terminus assumed
SMILES: CC(C)C[C@H](NC(=O)[C@H](CCCNC(=N)N)NC(=O)CNC(=O)CNC(=O)[C@@H](N)CCCNC(=N)N)C(=O)N[C@H]1CSSC[C@@H](C(=O)N[C@H](C(=O)NCC(=O)N[C@@H](CCCNC(=N)N)C(N)=O)C(C)C)NC(=O)[C@H](Cc2ccccc2)NC(=O)[C@@H]2CSSC[C@H](NC(=O)[C@H](Cc3ccc(O)cc3)NC1=O)C(=O)N1CCC[C@H]1C(=O)N[C@@H](Cc1c[nH]cn1)C(=O)N[C@H](Cc1ccccc1)C(=O)N[C@@H](Cc1c[nH]cn1)C(=O)N[C@@H](Cc1c[nH]c3ccccc13)C(=O)N2
In assay [1], B1 displayed a coupling of Gαs-SmBit to MC4R-LgBit (nanoluciferase complementation, live cells): EC50 of 0.193 nM and a coupling of Gαs-SmBit to MC4R-LgBit (nanoluciferase complementation, live cells): efficacy above that of α-MSH (% more efficacious than α-MSH) of 8.8. In addition, in assay [2], the cAMP accumulation (Cisbio HTRF) in HEK293 cells transiently expressing mouse MC4R-EGFP: EC50 came to 3.7 nM and the cAMP accumulation (Cisbio HTRF) in HEK293 cells transiently expressing mouse MC4R-EGFP: Emax (normalised to NDP-α-MSH) was determined as 96%. For the same molecule, the recruitment of β-arrestin-2-nanoluciferase to MC4R-EGFP (kinetic BRET, HEK293 cells), 10 μM peptide: BRET efficiency relative to NDP-α-MSH (100) in assay [3] is more than 130%. For the same molecule, in assay [4], the recruitment of β-arrestin-2-LgBit to MC4R-SmBit (nanoluciferase complementation, live cells): EC50 was 23.5 nM and the recruitment of β-arrestin-2-LgBit to MC4R-SmBit (nanoluciferase complementation, live cells): increase in efficacy (Emax) over α-MSH (% increase in efficacy compared to α-MSH) was 99.

Consider GFCWYVCVYH[dF]RWRVCYRRCN-NH2 (disulfide 7-16, 3-20) [arenicin-3-like peptide 5], for which, in assay [2], the cAMP accumulation (Cisbio HTRF) in HEK293 cells transiently expressing mouse MC4R-EGFP: EC50 was 260 nM and the cAMP accumulation (Cisbio HTRF) in HEK293 cells transiently expressing mouse MC4R-EGFP: Emax (normalised to NDP-α-MSH) is 99%. This molecule also registered a recruitment of β-arrestin-2-nanoluciferase to MC4R-EGFP (kinetic BRET, HEK293 cells), 10 μM peptide: BRET efficacy relative to NDP-α-MSH (100) in assay [3] of less than 60%.

B2: arenicin-3-like peptide 2 (peptide)
peptide: GFCWYVCVYPH[dF]HWVCYRRCN-NH2
modifications: disulfide 7-16, 3-20; N-terminus assumed
SMILES: CC(C)[C@@H]1NC(=O)[C@H](Cc2c[nH]c3ccccc23)NC(=O)[C@H](Cc2c[nH]cn2)NC(=O)[C@@H](Cc2ccccc2)NC(=O)[C@H](Cc2c[nH]cn2)NC(=O)[C@@H]2CCCN2C(=O)[C@H](Cc2ccc(O)cc2)NC(=O)[C@H](C(C)C)NC(=O)[C@@H]2CSSC[C@H](NC1=O)C(=O)N[C@@H](Cc1ccc(O)cc1)C(=O)N[C@@H](CCCNC(=N)N)C(=O)N[C@@H](CCCNC(=N)N)C(=O)N[C@H](C(=O)N[C@@H](CC(N)=O)C(N)=O)CSSC[C@H](NC(=O)[C@H](Cc1ccccc1)NC(=O)CN)C(=O)N[C@@H](Cc1c[nH]c3ccccc13)C(=O)N[C@@H](Cc1ccc(O)cc1)C(=O)N[C@@H](C(C)C)C(=O)N2
For B2, in assay [2], the cAMP accumulation (Cisbio HTRF) in HEK293 cells transiently expressing mouse MC4R-EGFP: EC50 amounted to 18 nM and the cAMP accumulation (Cisbio HTRF) in HEK293 cells transiently expressing mouse MC4R-EGFP: Emax (normalised to NDP-α-MSH) was 95%. The molecule also displayed a recruitment of β-arrestin-2-nanoluciferase to MC4R-EGFP (kinetic BRET, HEK293 cells), 10 μM peptide: BRET efficiency relative to NDP-α-MSH (100) in assay [3] of more than 130%.

B3: arenicin-3-like peptide 1 (peptide)
peptide: GFCWYVCPH[dF]HWCYRRCN-NH2
modifications: disulfide 7-13, 3-17; N-terminus assumed
SMILES: CC(C)[C@@H]1NC(=O)[C@H](Cc2ccc(O)cc2)NC(=O)[C@H](Cc2c[nH]c3ccccc23)NC(=O)[C@@H](NC(=O)[C@H](Cc2ccccc2)NC(=O)CN)CSSC[C@@H](C(=O)N[C@@H](CC(N)=O)C(N)=O)NC(=O)[C@H](CCCNC(=N)N)NC(=O)[C@H](CCCNC(=N)N)NC(=O)[C@H](Cc2ccc(O)cc2)NC(=O)[C@@H]2CSSC[C@H](NC1=O)C(=O)N1CCC[C@H]1C(=O)N[C@@H](Cc1c[nH]cn1)C(=O)N[C@H](Cc1ccccc1)C(=O)N[C@@H](Cc1c[nH]cn1)C(=O)N[C@@H](Cc1c[nH]c3ccccc13)C(=O)N2
As to B3, in assay [1], the coupling of Gαs-SmBit to MC4R-LgBit (nanoluciferase complementation, live cells): EC50 came out at 0.702 nM and the coupling of Gαs-SmBit to MC4R-LgBit (nanoluciferase complementation, live cells): efficacy above that of α-MSH (% more efficacious than α-MSH) came to 25. In assay [2], this molecule displayed a cAMP accumulation (Cisbio HTRF) in HEK293 cells transiently expressing mouse MC4R-EGFP: EC50 of 1 nM and a cAMP accumulation (Cisbio HTRF) in HEK293 cells transiently expressing mouse MC4R-EGFP: Emax (normalised to NDP-α-MSH) of 98%. For the same molecule, the recruitment of β-arrestin-2-nanoluciferase to MC4R-EGFP (kinetic BRET, HEK293 cells), 10 μM peptide: BRET efficiency relative to NDP-α-MSH (100) in assay [3] was more than 130%. In assay [4], the recruitment of β-arrestin-2-LgBit to MC4R-SmBit (nanoluciferase complementation, live cells): EC50 is 25.2 nM and the recruitment of β-arrestin-2-LgBit to MC4R-SmBit (nanoluciferase complementation, live cells): increase in efficacy (Emax) over α-MSH (% increase in efficacy compared to α-MSH) turned out to be 82.

In assay [2], GFCWYVCVYH[dF]HWRVCYRRCN-NH2 (disulfide 7-16, 3-20) [arenicin-3-like peptide 4] gave a cAMP accumulation (Cisbio HTRF) in HEK293 cells transiently expressing mouse MC4R-EGFP: EC50 of 820 nM and a cAMP accumulation (Cisbio HTRF) in HEK293 cells transiently expressing mouse MC4R-EGFP: Emax (normalised to NDP-α-MSH) of 106%. In assay [3], this molecule returned a recruitment of β-arrestin-2-nanoluciferase to MC4R-EGFP (kinetic BRET, HEK293 cells), 10 μM peptide: BRET efficacy relative to NDP-α-MSH (100) of less than 60%.
